Patent US20040086503A1 (Amgen, published 2004)

How the values were obtained:
canine IGF-IR = target: T1, canine IGF-IR (canine, UniProt A0A8I3MER7 10-1344); assay: immunoprecipitation and Western blot on cells
T1 construct: whole, on cells
Description: (§1) The samples prepared as described above were then analyzed by Western blot. We loaded 12 μl of each sample per lane on 4-10% gradient Novex™ gels run with 1× MES buffer (Novex™). Gels were run at 150V for 1 hour or at 200V for approximately 30 minutes. We then transferred the gel to a membrane in Novex™ transfer buffer with 10% methanol either overnight at 100 mA or for 1-1.5 hours at 250 mA. We then allowed the membrane to dry completely and blocked at room temperature with TBS (Tris-buffered saline pH 8.0) containing Superblock (Pierce Chemical Co.). We added the IGF-IR blotting antibody SC713 (Santa Cruz) to detect immunoprecipitated IGF-IR.

rabbit IGF-IR = target: T2, rabbit IGF-IR (rabbit, UniProt G1TLR2 31-1366); assay: immunoprecipitation and Western blot on cells
T2 construct: whole, on cells
Description: as §1

guinea pig IGF-IR = guinea pig IGF-IR (guinea pig, UniProt H0V5D0 31-736; H0V5D0 741-1367); assay: immunoprecipitation and Western blot on cells
Description: as §1

human IGF-IR on cells [1] = target: T3, human IGF-IR on cells (human, UniProt P08069 31-1367); assay: cell-based or functional assay
human IGF-IR on cells [2] = target: T3, human IGF-IR on cells; assay: inhibition of [125I]-IGF-I binding to IGF-IR-transfected NIH-3T3 cells
Description: We plated IGF-IR-transfected NIH-3T3 cells (5×10⁴/ml) in 100 μl of DMEM high glucose media supplemented with L-glutamine (0.29 mg/ml), 10% heat-inactivated FBS, and 500 μg/ml each of geneticin, penicillin and streptomycin in 96-well U-bottom plates. We then incubated the plates at 37° C., 5% CO₂ overnight to allow cells to attach. We then decanted the media from the plates and replaced it with 100 μl fresh media per well. For testing, we diluted antibodies in assay media (DMEM high glucose media supplemented with L-glutamine, 10% heat-inactivated FBS, 200 μg/ml BSA and 500 μg/ml each of geneticin, penicillin and streptomycin) to the desired final concentration and added 50 μl per well. All samples were performed in triplicate. We then incubated the plates at 37° C. for ten minutes. […] We incubated the plates for 10 minutes at 37° C., decanted the media by blotting gently onto paper towels and washed twice with assay media. We then lysed the cells by adding 50 μl 0.1 N NaOH, 0.1% SDS and shaking the plates for five minutes at room temperature. We then transferred the samples to a scintillation plate, added 150 μl OptiPhase Supermix and read the signal on a Wallac Micro-Beta counter.

cynomologous IGF-IR = target: T4, cynomologous IGF-IR (cynomologous); assay: flow cytometry, biotinylated antibody on cynomologous cells, streptavidin-RPE
T4 construct: whole, on cells; also called IGF-IR of cynomologous cells
Description: We performed FACS analysis to determine the affinity of the antibodies of the invention for IGF-IR from other animals, particularly the old world monkeys described above. We incubated aliquots of human and monkey cells (5×10⁵) for 1 hour on ice with increasing concentrations of biotinylated anti-IGF-IR antibodies of the invention or with a biotinylated anti-keyhole limpet hemocyanin (KLH) antibody (Abgenix) as a negative control. We then incubated the samples for 30 minutes on ice with steptavidin-conjugated RPE (phycoerythrin). We measured binding by flow cytometry and analyzed the histograms of fluorescence intensity (Fl2-H) versus cell number (Counts) using CellQuest software. We calculated binding (Kd) for each antibody from graphs of mean fluorescence intensity versus antibody concentration. In most experiments, we measured binding in cultured human MCF-7 cells and either rhesus or cynomologous tissue culture cells. We controlled for depletion of the antibody by measuring binding over a range of cell concentrations.

COS7 IGF-IR = COS7 IGF-IR (old world monkey (COS7 cells)); assay: cell-based or functional assay
Rhesus IGF-IR = Rhesus IGF-IR (rhesus, UniProt I2CWY3 31-736; I2CWY3 741-1367); assay: cell-based or functional assay
Rhesus IGF-IR, sequence (alpha, as listed by the source limits assumed, chain 1 of 2): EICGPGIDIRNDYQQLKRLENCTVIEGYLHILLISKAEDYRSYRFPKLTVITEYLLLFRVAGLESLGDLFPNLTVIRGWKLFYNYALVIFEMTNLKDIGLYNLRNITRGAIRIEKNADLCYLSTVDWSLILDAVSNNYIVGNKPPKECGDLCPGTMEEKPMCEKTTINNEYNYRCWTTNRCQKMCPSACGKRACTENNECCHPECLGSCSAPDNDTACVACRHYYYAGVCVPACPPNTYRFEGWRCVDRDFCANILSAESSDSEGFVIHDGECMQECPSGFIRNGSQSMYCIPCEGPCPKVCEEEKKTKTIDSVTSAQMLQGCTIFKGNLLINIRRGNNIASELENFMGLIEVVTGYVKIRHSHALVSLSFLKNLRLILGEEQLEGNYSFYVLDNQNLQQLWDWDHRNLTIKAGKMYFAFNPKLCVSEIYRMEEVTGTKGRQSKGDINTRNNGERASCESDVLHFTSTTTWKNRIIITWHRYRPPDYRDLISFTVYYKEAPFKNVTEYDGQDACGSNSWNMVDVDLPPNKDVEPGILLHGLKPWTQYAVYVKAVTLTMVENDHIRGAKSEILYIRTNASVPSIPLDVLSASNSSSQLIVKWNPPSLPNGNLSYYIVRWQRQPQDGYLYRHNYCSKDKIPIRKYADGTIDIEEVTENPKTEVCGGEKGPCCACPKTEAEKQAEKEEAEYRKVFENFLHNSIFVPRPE
Rhesus IGF-IR, sequence (beta, as listed by the source limits assumed, chain 2 of 2): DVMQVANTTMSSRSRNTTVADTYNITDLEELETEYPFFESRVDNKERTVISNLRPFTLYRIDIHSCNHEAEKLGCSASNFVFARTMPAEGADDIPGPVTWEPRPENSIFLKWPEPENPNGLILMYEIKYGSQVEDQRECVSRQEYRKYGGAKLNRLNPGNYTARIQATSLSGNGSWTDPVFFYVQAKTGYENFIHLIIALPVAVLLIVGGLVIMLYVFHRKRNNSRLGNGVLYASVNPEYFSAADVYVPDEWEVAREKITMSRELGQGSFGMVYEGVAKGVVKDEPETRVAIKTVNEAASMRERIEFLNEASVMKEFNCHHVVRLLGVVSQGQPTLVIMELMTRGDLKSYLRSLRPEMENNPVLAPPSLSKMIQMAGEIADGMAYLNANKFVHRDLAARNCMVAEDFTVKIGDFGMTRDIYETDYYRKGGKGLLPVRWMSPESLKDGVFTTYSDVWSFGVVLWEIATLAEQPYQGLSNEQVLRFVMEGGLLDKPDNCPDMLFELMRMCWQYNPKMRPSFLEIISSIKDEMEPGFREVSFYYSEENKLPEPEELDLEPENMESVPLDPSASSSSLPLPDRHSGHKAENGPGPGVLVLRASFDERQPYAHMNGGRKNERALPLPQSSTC

T1 sequence (A0A8I3MER7 entry or part of it): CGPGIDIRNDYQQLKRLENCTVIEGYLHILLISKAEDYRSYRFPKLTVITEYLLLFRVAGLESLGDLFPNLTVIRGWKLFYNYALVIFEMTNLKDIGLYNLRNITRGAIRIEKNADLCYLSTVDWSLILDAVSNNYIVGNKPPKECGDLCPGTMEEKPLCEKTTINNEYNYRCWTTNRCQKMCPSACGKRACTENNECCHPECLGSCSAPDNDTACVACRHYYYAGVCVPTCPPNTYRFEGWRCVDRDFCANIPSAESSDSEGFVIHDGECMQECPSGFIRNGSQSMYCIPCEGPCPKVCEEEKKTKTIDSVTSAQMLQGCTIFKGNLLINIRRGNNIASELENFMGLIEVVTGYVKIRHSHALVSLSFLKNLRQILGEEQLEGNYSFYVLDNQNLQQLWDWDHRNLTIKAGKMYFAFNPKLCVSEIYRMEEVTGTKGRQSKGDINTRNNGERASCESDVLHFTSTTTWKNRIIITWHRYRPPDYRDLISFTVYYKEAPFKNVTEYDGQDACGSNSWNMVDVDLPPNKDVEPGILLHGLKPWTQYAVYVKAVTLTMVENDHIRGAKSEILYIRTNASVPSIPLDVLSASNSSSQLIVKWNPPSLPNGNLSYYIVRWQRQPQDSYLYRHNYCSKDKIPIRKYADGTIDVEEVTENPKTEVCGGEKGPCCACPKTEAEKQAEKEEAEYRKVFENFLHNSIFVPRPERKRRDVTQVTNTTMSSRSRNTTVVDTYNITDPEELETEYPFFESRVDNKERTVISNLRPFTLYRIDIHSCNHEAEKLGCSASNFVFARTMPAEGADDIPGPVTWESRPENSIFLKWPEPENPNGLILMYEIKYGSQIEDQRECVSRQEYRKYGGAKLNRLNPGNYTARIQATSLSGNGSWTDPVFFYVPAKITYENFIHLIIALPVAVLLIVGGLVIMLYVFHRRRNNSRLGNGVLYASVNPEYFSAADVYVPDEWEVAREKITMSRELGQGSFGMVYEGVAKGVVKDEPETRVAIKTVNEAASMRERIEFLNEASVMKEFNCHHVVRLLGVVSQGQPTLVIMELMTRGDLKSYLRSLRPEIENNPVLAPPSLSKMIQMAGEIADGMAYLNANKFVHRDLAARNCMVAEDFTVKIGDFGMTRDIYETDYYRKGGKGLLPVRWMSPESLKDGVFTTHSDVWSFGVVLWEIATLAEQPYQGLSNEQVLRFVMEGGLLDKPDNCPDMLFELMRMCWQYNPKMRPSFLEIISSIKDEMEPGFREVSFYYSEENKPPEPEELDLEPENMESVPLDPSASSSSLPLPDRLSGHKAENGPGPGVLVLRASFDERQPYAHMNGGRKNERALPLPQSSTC
guinea pig IGF-IR, sequence (alpha, as listed by the source limits assumed, chain 1 of 2): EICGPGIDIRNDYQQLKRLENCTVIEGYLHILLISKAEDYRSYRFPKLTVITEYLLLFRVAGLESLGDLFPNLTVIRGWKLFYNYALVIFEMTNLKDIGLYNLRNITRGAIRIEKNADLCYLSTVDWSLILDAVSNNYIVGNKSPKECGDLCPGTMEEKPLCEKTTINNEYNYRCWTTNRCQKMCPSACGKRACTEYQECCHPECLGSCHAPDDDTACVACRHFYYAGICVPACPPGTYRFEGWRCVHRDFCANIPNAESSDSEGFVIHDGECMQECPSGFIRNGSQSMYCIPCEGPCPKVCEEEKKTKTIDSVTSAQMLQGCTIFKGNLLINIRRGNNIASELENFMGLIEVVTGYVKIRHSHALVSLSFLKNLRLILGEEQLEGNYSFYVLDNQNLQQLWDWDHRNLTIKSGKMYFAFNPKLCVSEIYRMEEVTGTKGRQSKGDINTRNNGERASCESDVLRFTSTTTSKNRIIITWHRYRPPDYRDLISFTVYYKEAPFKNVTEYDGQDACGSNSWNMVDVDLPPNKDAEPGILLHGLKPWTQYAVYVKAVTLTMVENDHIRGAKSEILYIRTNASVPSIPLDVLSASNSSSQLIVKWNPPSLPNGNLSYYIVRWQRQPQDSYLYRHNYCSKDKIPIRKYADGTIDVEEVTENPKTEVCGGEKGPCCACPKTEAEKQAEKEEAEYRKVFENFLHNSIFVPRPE
guinea pig IGF-IR, sequence (beta, as listed by the source limits assumed, chain 2 of 2): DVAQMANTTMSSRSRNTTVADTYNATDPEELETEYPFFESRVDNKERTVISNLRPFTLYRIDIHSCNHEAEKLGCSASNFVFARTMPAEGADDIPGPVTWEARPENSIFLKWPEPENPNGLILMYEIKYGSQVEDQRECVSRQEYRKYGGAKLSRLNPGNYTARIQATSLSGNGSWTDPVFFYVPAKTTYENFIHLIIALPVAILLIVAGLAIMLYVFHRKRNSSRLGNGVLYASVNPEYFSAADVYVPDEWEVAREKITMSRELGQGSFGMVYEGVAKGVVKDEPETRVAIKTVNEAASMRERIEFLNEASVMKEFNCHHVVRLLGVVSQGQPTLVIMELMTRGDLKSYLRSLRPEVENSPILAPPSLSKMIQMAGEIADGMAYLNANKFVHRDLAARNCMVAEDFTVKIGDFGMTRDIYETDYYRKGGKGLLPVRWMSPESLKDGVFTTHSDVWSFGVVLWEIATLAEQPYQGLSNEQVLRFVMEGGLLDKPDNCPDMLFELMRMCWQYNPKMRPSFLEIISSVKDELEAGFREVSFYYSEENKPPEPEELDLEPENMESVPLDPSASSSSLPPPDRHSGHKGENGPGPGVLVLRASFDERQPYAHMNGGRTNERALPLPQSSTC

B1: anti-IGF-IR antibody 2.12.1 (antibody, V domains shown)
VH: QAQLVESGGGLVKPGGSLRLSCAASGFTFSDYYMSWIRQAPGKGLEWVSYISSSGSTRDYADSVKGRFTISRDNAKNSLYLQMNSLRAEDTAVYYCVRDGVETTFYYYYYGMDVWGQGTTVTVSS
VL: DIQMTQSPSSLSASVGDRVTFTCRASQDIRRDLGWYQQKPGKAPKRLIYAASRLQSGVPSRFSGSGSGTEFTLTISSLQPEDFATYYCLQHNNYPRTFGQGTEVEIIR
notes: Fully human IgG2 kappa from a XenoMouse hybridoma; Biotinylated in the FACS assay
B1: no binding (tested: 1 µg/ml) (canine IGF-IR); no binding (tested: 1 µg/ml) (rabbit IGF-IR); no binding (tested: 1 µg/ml) (guinea pig IGF-IR). The “IC50 of inhibition of IGF-I-induced tyrosine phosphorylation of IGF-IR (ELISA, IGF-IR-transfected NIH-3T3 cells)” value (human IGF-IR on cells [1]) was 0.172 µg/mL and the IC50 (human IGF-IR on cells [2]) was 0.45 µg/mL.

B2: anti-IGF-IR antibody 2.13.2 (antibody, V domains shown)
VH: EVQLLESGGGLVQPGGSLRLSCTASGFTFSSYAMNWVRQAPGKGLEWVSAISGSGGTTFYADSVKGRFTISRDNSRTTLYLQMNSLRAEDTAVYYCAKDLGWSDSYYYYYGMDVWGQGTTVTVSS
VL: DIQMTQFPSSLSASVGDRVTITCRASQGIRNDLGWYQQKPGKAPKRLIYAASRLHRGVPSRFSGSGSGTEFTLTISSLQPEDFATYYCLQHNSYPCSFGQGTKLEIKR
notes: as for B1
B2: no binding (tested: 1 µg/ml) (canine IGF-IR); no binding (tested: 1 µg/ml) (rabbit IGF-IR); no binding (tested: 1 µg/ml) (guinea pig IGF-IR). The “IC50 of inhibition of IGF-I-induced tyrosine phosphorylation of IGF-IR (ELISA, IGF-IR-transfected NIH-3T3 cells)” value (human IGF-IR on cells [1]) was 0.0812 µg/mL, the Kd (cynomologous IGF-IR) was 0.1 µg/mL and the IC50 (human IGF-IR on cells [2]) was 0.18 µg/mL. For the same binder, the “IC50 of inhibition of IGF-I-induced phosphorylation of IGF-IR (immunoprecipitation, Western blot with HRP-PY54)” value (COS7 IGF-IR) was 0.02 µg/mL and the “IC50 of inhibition of IGF-I-induced phosphorylation of IGF-IR (immunoprecipitation, Western blot with HRP-PY54)” value (Rhesus IGF-IR) was 0.005 µg/mL.

B3: anti-IGF-IR antibody 2.14.3 (antibody, human IgG2, V domains shown)
VH: GPGLVKPSETLSLTCTVSGGSISNYYWSWIRQPAGKGLEWIGRIYTSGSPNYNPSLKSRVTMSVDTSKNQFSLKLNSVTAADTAVYYCAVTIFGVVIIFDYWGQGTLVTVSS
VL: SSLSASVGDRVTFTCRASQDIRRDLGWYQQKPGKAPKRLIYAASRLQSGVPSRFSGSGSGTEFTLTISSLQPEDFATYYCLQHNNYPRTFGQGTEVEIIR
B3 was tested, and the “IC50 of inhibition of IGF-I-induced tyrosine phosphorylation of IGF-IR (ELISA, IGF-IR-transfected NIH-3T3 cells)” value (human IGF-IR on cells [1]) was 0.325 µg/mL.

B4: anti-IGF-IR antibody 4.9.2 (antibody, human IgG2, V domains shown)
VH: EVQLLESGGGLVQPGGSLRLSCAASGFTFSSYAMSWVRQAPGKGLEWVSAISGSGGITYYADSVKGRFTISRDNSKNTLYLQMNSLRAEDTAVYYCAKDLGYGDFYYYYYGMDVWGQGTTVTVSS
VL: DIQMTQSPSSLSASVGDRVTITCRASQGIRSDLGWFQQKPGKAPKRLIYAASKLHRGVPSRFSGSGSGTEFTLTISRLQPEDFATYYCLQHNSYPLTFGGGTKVEIK
notes: Human IgG2 kappa; Biotinylated in the FACS assay
B4: no binding (tested: 1 µg/ml) (canine IGF-IR); no binding (tested: 1 µg/ml) (rabbit IGF-IR); no binding (tested: 1 µg/ml) (guinea pig IGF-IR). For the same binder, the “IC50 of inhibition of IGF-I-induced tyrosine phosphorylation of IGF-IR (ELISA, IGF-IR-transfected NIH-3T3 cells)” value (human IGF-IR on cells [1]) was 0.0324 µg/mL, the Kd (cynomologous IGF-IR) was 0.1 µg/mL and the IC50 (human IGF-IR on cells [2]) was 0.1 µg/mL. The “IC50 of inhibition of IGF-I-induced phosphorylation of IGF-IR (immunoprecipitation, Western blot with HRP-PY54)” value (COS7 IGF-IR) was 0.02 µg/mL and the “IC50 of inhibition of IGF-I-induced phosphorylation of IGF-IR (immunoprecipitation, Western blot with HRP-PY54)” value (Rhesus IGF-IR) was 0.005 µg/mL.
